According to PMC8632329 (mAbs, 2021):

Experiments:
hVISTA-COMP-his [1] = target: T1, hVISTA-COMP-his (Homo sapiens, UniProt Q9H7M9); assay: SPR
Target sequence in this assay (Q9H7M9 whole entry, looked up, tested part not stated): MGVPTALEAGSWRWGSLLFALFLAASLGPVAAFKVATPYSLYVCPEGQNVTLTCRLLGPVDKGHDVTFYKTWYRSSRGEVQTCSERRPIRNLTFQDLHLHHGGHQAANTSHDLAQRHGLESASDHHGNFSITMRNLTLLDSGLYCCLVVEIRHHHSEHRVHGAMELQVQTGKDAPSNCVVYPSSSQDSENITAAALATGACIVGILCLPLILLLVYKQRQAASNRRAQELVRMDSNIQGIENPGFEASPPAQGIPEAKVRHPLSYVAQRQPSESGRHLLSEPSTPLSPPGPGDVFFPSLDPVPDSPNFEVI

mVISTA-COMP-his = mVISTA-COMP-his (Mus musculus, UniProt Q9D659); assay: SPR
hVISTA-Fc = hVISTA-Fc (Homo sapiens (Human)., UniProt Q9H7M9); assay: SPR
hVISTA-COMP-his [2] = target: T1, hVISTA-COMP-his
Target sequence in this assay (Q9H7M9 33-168): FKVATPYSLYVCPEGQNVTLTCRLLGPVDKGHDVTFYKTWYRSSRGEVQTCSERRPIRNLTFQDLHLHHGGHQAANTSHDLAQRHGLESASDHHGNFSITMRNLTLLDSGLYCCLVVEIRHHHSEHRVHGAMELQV

Sequence of mVISTA-COMP-his (Q9D659 whole entry, looked up, tested part not stated): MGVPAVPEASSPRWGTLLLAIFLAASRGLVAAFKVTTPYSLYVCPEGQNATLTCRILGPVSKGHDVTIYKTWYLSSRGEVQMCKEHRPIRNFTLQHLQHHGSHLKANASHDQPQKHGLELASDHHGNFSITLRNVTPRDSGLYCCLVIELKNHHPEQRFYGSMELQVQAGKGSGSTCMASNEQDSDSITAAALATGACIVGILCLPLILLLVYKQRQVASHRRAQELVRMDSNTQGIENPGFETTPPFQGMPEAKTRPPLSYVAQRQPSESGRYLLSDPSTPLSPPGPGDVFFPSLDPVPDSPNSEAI
Sequence of hVISTA-Fc (Q9H7M9 33-194): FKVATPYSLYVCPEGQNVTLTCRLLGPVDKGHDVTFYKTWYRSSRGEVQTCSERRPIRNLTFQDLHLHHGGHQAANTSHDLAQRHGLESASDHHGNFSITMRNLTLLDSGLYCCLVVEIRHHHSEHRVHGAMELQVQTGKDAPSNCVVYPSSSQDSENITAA

| Kd (hVISTA-COMP-his [1]) [nM] | binding result (hVISTA-COMP-his [2]) | Binder | other results |
| --- | --- | --- | --- |
| 0.44 | – | murine anti-hVISTA mAb 7E12 (antibody, V domains shown) VH: DVHLQESGPGLVKPSQSLSLTCSVTGYSITSGYYWNWIRQFPGNKLEWMGYISYDGNNNYNPSLKNRISITRDTSKNQFFLKLNSVTTEDTATYYCARGDYGSEAMDYWGQGTSVTVSS VL: DIRVTQSPASLAVSLGQRATISCRASKSVSTSGYSYMNWYQQKPGQPPQLLIYLASNLESGVPARFSGSGSGTDFTLNIHPVEEEDAAIYYCQHSRELPWTFGGGTKLEIK | binding result (mVISTA-COMP-his): no binding |
| 49 | – | rat anti-hmVISTA mAb 7C7 (antibody, V domains shown) VH: EVQLVESGGGLVQPGRSLKLSCVASGFTFNKYWMSWTRQAPGKGLEWVASITNSGGNTYYPDSVKGRFTISRDNAQNTLYLQMNSLRSEDTATYYCTLGVDYWGQGAMVTVSS VL: DVVMTQTPPSLSVTIGQSVSISCKSSQSLVYSDGKTYLHWLLQSSGRSPKRLIYQVSNLASGVPDRFSGTGSQKDFTLKISRVEAKDLGVYYCAQTTHFPYTFGAGTKLEMK | Kd (mVISTA-COMP-his): 51 nM |
| – | – | anti-hVISTA nanobody hVISTANb7 (VHH) VHH: QVQLQESGGGLVYPGGSLRLSCTASGFAFTNAYMNWVRQAPGKGAEWVSGITRDSNRTSYADSVKGRFTISRDNAKNTLYLQMDSLKSDDTALYYCNAEPSGWWLDDDYWGQGTQVTVSS | Kd (hVISTA-Fc): 7.5 nM |
| – | binds | Nb3 [hVISTANb3] (VHH) VHH: QVQLQESGGGLVHPGGSLRLSCAASGSVGTIFSMGWFRQAPGVQREMVATITNSGETNYAAFVKGRFTITRDNAQNTVYLQMNSLKPEDTAAYYCNAFDYVGGRTYELPYWGQGTQVTVSS | – |
| – | binds | Nb2 [hVISTANb2] (VHH) VHH: QVQLQESGGGLVHPGGSLRLSCAASGSVGTIFSMGWFRQAPGVQREMVATITNSGETNYAAFVKGRFTISRDNAENTMYLEMNDLKPEDTAAYYCNAFDYVGGRTYELPYWGQGTQVTVSS | – |
| – | – | anti-hVISTA nanobody hVISTANb1 (VHH) VHH: QVQLQESGGGLVQPGGSLRLSCAASGSVGTIFSMGWFRQAPGVQREMVATITNSGETNYAAFVKGRFTISRDNAENTVYLQMNSLKPEDTAAYYCNAFDYVGGRTYELPYWGQGTQVTVSS | Kd (hVISTA-Fc): 11 nM |
| – | binds | Nb6 [hVISTANb6] (VHH) VHH: QVQLQESGGGLVHPGGSLRLSCAASGSGVTIFSMGWFRQAPGVQREMVATITNSGETNYAAFVKGRFTISRDNAQNAVYLQMNSLKPEDTAAYYCNAFDYVGGRTYELPYWGQGTQVTVSS | – |
| 0.14 | – | murine anti-hVISTA mAb 7G5 (antibody, V domains shown) VH: QIQLVQSGPELKKPGETVKISCKASGYTFTNYGMNWVKQAPEKGLKWMGWINTYTGEPTYADDFKGRFAFSLETSASTAYLQINNLKNEDTATYFCARRSNPWPNDYWGQGTSLTVSS VL: DIQMTQSPSSFSASLGERVSLTCRASQEISGYLSWLQQKPDGTIKRLIYAASTLDSGVPKRFSGSRSGSDYSLTISSLESEDFADYYCLQYASYPWTFGGGTKLEIK | binding result (mVISTA-COMP-his): no binding |
